This note sets out measurements from patent US20230235013A1 (MABSOLVE, published 2023).

For test [1], the target named is T1, Histidine-tagged recombinant human FcγRI (CD64) (human, UniProt P12314 16-288).
T1 construct: bought; also called Sino Biological Cat. No. 12056-H08H
The test can be described thus: SPR, culture supernatant, captured His-FcγRI.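 Note: biacore T200 SPR at 25 °C, anti-His capture, supernatants of HEK293 cells expressing IgG1 Fc variants injected 1 min, reference-subtracted response read 55 s after injection start.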

Test [2] has as its target T2, human FcγRIIA (R131, Sino Biological Cat. No. 10374-H08H) (human, UniProt P12318 34-218).
T2 construct: bought; also called human FcγRIIa R131 allele; FcγRII allele R131
T2 sequence (looked up): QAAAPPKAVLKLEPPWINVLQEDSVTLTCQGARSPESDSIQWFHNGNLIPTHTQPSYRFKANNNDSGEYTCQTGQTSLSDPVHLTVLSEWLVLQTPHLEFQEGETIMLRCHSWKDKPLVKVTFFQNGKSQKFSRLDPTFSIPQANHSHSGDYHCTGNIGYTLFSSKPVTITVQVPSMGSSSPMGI
The test can be described thus: SPR, captured His-receptor.

Test [3] addresses T3, human FcγRIIIB (NA2 allotype, Sino Biological Cat. No. 11046-H08H) (human, UniProt O75015 17-200).
T3 construct: bought; also called human FcγRIIIb NA2 allele
The test can be described thus: SPR, captured His-receptor. Background: SPR reads the build-up and loss of mass on a sensor chip optically.

Test [4] concerns the target T1, Histidine-tagged recombinant human …. The experiment in a line: SPR, captured His-receptor.
Test [5] has as its target T4, human FcγRIIIA (F158) (human, UniProt P08637 17-208).
T4 construct: bought; F158 allele
The experiment in a line: SPR, FcγRIIIA captured. Note: test concentration or dose not given here.

Test [6] deals with T5, Histidine-tagged recombinant human FcγRI (CD64) (human, UniProt P12314 16-288, limits assumed).
T5 construct: bought
The experiment in a line: SPR, His-FcγRI captured; Expt 2.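 Note: biacore T200 SPR at 25 °C, Fc-variant antibodies at 100 µg/mL flowed 1 min over anti-His-captured receptor, signal read near injection end minus third buffer blank; antibody analyte injected at 100 µg/mL for 1 min.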

The target of test [7] is T5, Histidine-tagged recombinant human …. The test can be described thus: SPR, His-FcγRI captured; Expt 1.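 Note: SPR at 25 °C on anti-His antibody chip capturing FcγRI, Fc-variant antibodies injected at 100 µg/mL for 1 min, signal near end of injection minus buffer blank.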
Test [8] shares this target. The test can be described thus: SPR, His-FcγRI captured; Expt 3.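 Note: biacore T200 SPR at 25 °C, Fc-variant antibodies at 100 µg/mL flowed 1 min over anti-His-captured FcγRI, signal taken just before injection end minus a buffer blank cycle; antibody analyte injected at 100 µg/mL for 1 min.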
The target is the same in test [9]. The experiment in a line: SPR, His-FcγRI captured; mean.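 Note: biacore T200 SPR at 25 °C, anti-His surface capturing FcγRI, Fc-variant antibodies injected at 100 µg/mL for 1 min, signal near injection end minus third buffer blank, three repeats.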

T4 sequence (P08637 17-208 limits assumed): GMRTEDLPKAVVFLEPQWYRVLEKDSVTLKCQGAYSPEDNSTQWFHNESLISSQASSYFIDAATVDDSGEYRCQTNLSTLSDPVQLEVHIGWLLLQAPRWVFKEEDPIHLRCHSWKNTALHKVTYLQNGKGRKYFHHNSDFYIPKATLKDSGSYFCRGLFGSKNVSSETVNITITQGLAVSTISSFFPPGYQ

B1: anti-CD20 human IgG1 L234Q/L235S/G236R (antibody)
heavy: QVQLQQPGAELVKPGASVKMSCKASGYTFTSYNMHWVKQTPGRGLEWIGAIYPGNGDTSYNQKFKGKATLTADKSSSTAYMQLSSLTSEDSAVYYCARSTYYGGDWYFNVWGAGTTVTVSSASTKGPSVFPLAPSSKSTSGGTAALGCLVKDYFPEPVTVSWNSGALTSGVHTFPAVLQSSGLYSLSSVVTVPSSSLGTQTYICNVNHKPSNTKVDKKVEPKSCDKTHTCPPCPAPEQSRGPSVFLFPPKPKDTLMISRTPEVTCVVVDVSHEDPEVKFNWYVDGVEVHNAKTKPREEQYNSTYRVVSVLTVLHQDWLNGKEYKCKVSNKALPAPIEKTISKAKGQPREPQVYTLPPSRDELTKNQVSLTCLVKGFYPSDIAVEWESNGQPENNYKTTPPVLDSDGSFFLYSKLTVDKSRWQQGNVFSCSVMHEALHNHYTQKSLSLSPGK
light: QIVLSQSPAILSASPGEKVTMTCRASSSVSYIHWFQQKPGSSPKPWIYATSNLASGVPVRFSGSGSGTSYSLTISRVEAEDAATYYCQQWTSNPPTFGGGTKLEIKRTVAAPSVFIFPPSDEQLKSGTASVVCLLNNFYPREAKVQWKVDNALQSGNSQESVTEQDSKDSTYSLSSTLTLSKADYEKHKVYACEVTHQGLSSPVTKSFNRGEC
notes: also called 10.77; copies: 2 + 2
For B1, the Mean binding response in test [1] was determined as 11.9 RU. The binding result in test [2] and in test [3] was “no binding (tested: 100 µg/mL)” each time.

B2: anti-CD20 human IgG1 L234Q/L235S/G236R/T250Q/M428L (antibody)
heavy: QVQLQQPGAELVKPGASVKMSCKASGYTFTSYNMHWVKQTPGRGLEWIGAIYPGNGDTSYNQKFKGKATLTADKSSSTAYMQLSSLTSEDSAVYYCARSTYYGGDWYFNVWGAGTTVTVSSASTKGPSVFPLAPSSKSTSGGTAALGCLVKDYFPEPVTVSWNSGALTSGVHTFPAVLQSSGLYSLSSVVTVPSSSLGTQTYICNVNHKPSNTKVDKKVEPKSCDKTHTCPPCPAPEQSRGPSVFLFPPKPKDQLMISRTPEVTCVVVDVSHEDPEVKFNWYVDGVEVHNAKTKPREEQYNSTYRVVSVLTVLHQDWLNGKEYKCKVSNKALPAPIEKTISKAKGQPREPQVYTLPPSRDELTKNQVSLTCLVKGFYPSDIAVEWESNGQPENNYKTTPPVLDSDGSFFLYSKLTVDKSRWQQGNVFSCSVLHEALHNHYTQKSLSLSPGK
light: QIVLSQSPAILSASPGEKVTMTCRASSSVSYIHWFQQKPGSSPKPWIYATSNLASGVPVRFSGSGSGTSYSLTISRVEAEDAATYYCQQWTSNPPTFGGGTKLEIKRTVAAPSVFIFPPSDEQLKSGTASVVCLLNNFYPREAKVQWKVDNALQSGNSQESVTEQDSKDSTYSLSSTLTLSKADYEKHKVYACEVTHQGLSSPVTKSFNRGEC
notes: also called 10.146; copies: 2 + 2
For the molecule B2, the binding result in test [4], in [2] and in test [3] was “no binding (tested: 100 µg/mL)” each time.

B3: anti-CD20 human IgG1 L234T/L235R/G236R (antibody)
heavy: QVQLQQPGAELVKPGASVKMSCKASGYTFTSYNMHWVKQTPGRGLEWIGAIYPGNGDTSYNQKFKGKATLTADKSSSTAYMQLSSLTSEDSAVYYCARSTYYGGDWYFNVWGAGTTVTVSSASTKGPSVFPLAPSSKSTSGGTAALGCLVKDYFPEPVTVSWNSGALTSGVHTFPAVLQSSGLYSLSSVVTVPSSSLGTQTYICNVNHKPSNTKVDKKVEPKSCDKTHTCPPCPAPETRRGPSVFLFPPKPKDTLMISRTPEVTCVVVDVSHEDPEVKFNWYVDGVEVHNAKTKPREEQYNSTYRVVSVLTVLHQDWLNGKEYKCKVSNKALPAPIEKTISKAKGQPREPQVYTLPPSRDELTKNQVSLTCLVKGFYPSDIAVEWESNGQPENNYKTTPPVLDSDGSFFLYSKLTVDKSRWQQGNVFSCSVMHEALHNHYTQKSLSLSPGK
light: QIVLSQSPAILSASPGEKVTMTCRASSSVSYIHWFQQKPGSSPKPWIYATSNLASGVPVRFSGSGSGTSYSLTISRVEAEDAATYYCQQWTSNPPTFGGGTKLEIKRTVAAPSVFIFPPSDEQLKSGTASVVCLLNNFYPREAKVQWKVDNALQSGNSQESVTEQDSKDSTYSLSSTLTLSKADYEKHKVYACEVTHQGLSSPVTKSFNRGEC
notes: also called 2-61
Consider B3, for which the “Corrected response (RU)” value in test [5] is 3.8 RU; in test [6], 1.6 RU; in [7] it was 0.2 RU; in [8] it was 3.5 RU. Moreover, the “Corrected response (RU), Mean” value in test [9] worked out at 1.8 RU.

B4: anti-CD20 human IgG1 L234T/L235S/G236R (antibody)
heavy: QVQLQQPGAELVKPGASVKMSCKASGYTFTSYNMHWVKQTPGRGLEWIGAIYPGNGDTSYNQKFKGKATLTADKSSSTAYMQLSSLTSEDSAVYYCARSTYYGGDWYFNVWGAGTTVTVSSASTKGPSVFPLAPSSKSTSGGTAALGCLVKDYFPEPVTVSWNSGALTSGVHTFPAVLQSSGLYSLSSVVTVPSSSLGTQTYICNVNHKPSNTKVDKKVEPKSCDKTHTCPPCPAPETSRGPSVFLFPPKPKDTLMISRTPEVTCVVVDVSHEDPEVKFNWYVDGVEVHNAKTKPREEQYNSTYRVVSVLTVLHQDWLNGKEYKCKVSNKALPAPIEKTISKAKGQPREPQVYTLPPSRDELTKNQVSLTCLVKGFYPSDIAVEWESNGQPENNYKTTPPVLDSDGSFFLYSKLTVDKSRWQQGNVFSCSVMHEALHNHYTQKSLSLSPGK
light: QIVLSQSPAILSASPGEKVTMTCRASSSVSYIHWFQQKPGSSPKPWIYATSNLASGVPVRFSGSGSGTSYSLTISRVEAEDAATYYCQQWTSNPPTFGGGTKLEIKRTVAAPSVFIFPPSDEQLKSGTASVVCLLNNFYPREAKVQWKVDNALQSGNSQESVTEQDSKDSTYSLSSTLTLSKADYEKHKVYACEVTHQGLSSPVTKSFNRGEC
notes: also called 2-62
Turning to B4, the “Corrected response (RU)” value was 2.5 RU in [5], 0.9 RU in test [6], 0.8 RU in test [7] and 2.5 RU in test [8]. Moreover, in test [9], the “Corrected response (RU), Mean” value is 1.4 RU.

B5: anti-CD20 human IgG1 L234Q/L235S/G236R/M252Y/S254T/T256E (antibody)
heavy: QVQLQQPGAELVKPGASVKMSCKASGYTFTSYNMHWVKQTPGRGLEWIGAIYPGNGDTSYNQKFKGKATLTADKSSSTAYMQLSSLTSEDSAVYYCARSTYYGGDWYFNVWGAGTTVTVSSASTKGPSVFPLAPSSKSTSGGTAALGCLVKDYFPEPVTVSWNSGALTSGVHTFPAVLQSSGLYSLSSVVTVPSSSLGTQTYICNVNHKPSNTKVDKKVEPKSCDKTHTCPPCPAPEQSRGPSVFLFPPKPKDTLYITREPEVTCVVVDVSHEDPEVKFNWYVDGVEVHNAKTKPREEQYNSTYRVVSVLTVLHQDWLNGKEYKCKVSNKALPAPIEKTISKAKGQPREPQVYTLPPSRDELTKNQVSLTCLVKGFYPSDIAVEWESNGQPENNYKTTPPVLDSDGSFFLYSKLTVDKSRWQQGNVFSCSVMHEALHNHYTQKSLSLSPGK
light: QIVLSQSPAILSASPGEKVTMTCRASSSVSYIHWFQQKPGSSPKPWIYATSNLASGVPVRFSGSGSGTSYSLTISRVEAEDAATYYCQQWTSNPPTFGGGTKLEIKRTVAAPSVFIFPPSDEQLKSGTASVVCLLNNFYPREAKVQWKVDNALQSGNSQESVTEQDSKDSTYSLSSTLTLSKADYEKHKVYACEVTHQGLSSPVTKSFNRGEC
notes: also called 10.145; copies: 2 + 2
For B5, the binding result in [4], in test [2] and in test [3] was “no binding (tested: 100 µg/mL)” each time.

B6: anti-CD20 human IgG1 L234T/L235Q/G236R (antibody)
heavy: QVQLQQPGAELVKPGASVKMSCKASGYTFTSYNMHWVKQTPGRGLEWIGAIYPGNGDTSYNQKFKGKATLTADKSSSTAYMQLSSLTSEDSAVYYCARSTYYGGDWYFNVWGAGTTVTVSSASTKGPSVFPLAPSSKSTSGGTAALGCLVKDYFPEPVTVSWNSGALTSGVHTFPAVLQSSGLYSLSSVVTVPSSSLGTQTYICNVNHKPSNTKVDKKVEPKSCDKTHTCPPCPAPETQRGPSVFLFPPKPKDTLMISRTPEVTCVVVDVSHEDPEVKFNWYVDGVEVHNAKTKPREEQYNSTYRVVSVLTVLHQDWLNGKEYKCKVSNKALPAPIEKTISKAKGQPREPQVYTLPPSRDELTKNQVSLTCLVKGFYPSDIAVEWESNGQPENNYKTTPPVLDSDGSFFLYSKLTVDKSRWQQGNVFSCSVMHEALHNHYTQKSLSLSPGK
light: QIVLSQSPAILSASPGEKVTMTCRASSSVSYIHWFQQKPGSSPKPWIYATSNLASGVPVRFSGSGSGTSYSLTISRVEAEDAATYYCQQWTSNPPTFGGGTKLEIKRTVAAPSVFIFPPSDEQLKSGTASVVCLLNNFYPREAKVQWKVDNALQSGNSQESVTEQDSKDSTYSLSSTLTLSKADYEKHKVYACEVTHQGLSSPVTKSFNRGEC
notes: also called 2-60
Turning to B6, the “Corrected response (RU)” value is 3 RU in test [5], 2.3 RU in test [6], 2.2 RU in test [7] and 4.5 RU in [8]. The “Corrected response (RU), Mean” value in test [9] was 3 RU.

B7: anti-CD20 human IgG1 L234A/L235A/P329G (LALAPG reference) (antibody)
heavy: not shown
light: QIVLSQSPAILSASPGEKVTMTCRASSSVSYIHWFQQKPGSSPKPWIYATSNLASGVPVRFSGSGSGTSYSLTISRVEAEDAATYYCQQWTSNPPTFGGGTKLEIKRTVAAPSVFIFPPSDEQLKSGTASVVCLLNNFYPREAKVQWKVDNALQSGNSQESVTEQDSKDSTYSLSSTLTLSKADYEKHKVYACEVTHQGLSSPVTKSFNRGEC
notes: also called 2-66; copies: 2 + 2
With B7, the binding result in [2] and in test [3] was “no binding (tested: 100 µg/mL)” throughout.
